Experimental data: the supplement of paper PMC10567573
± gives the standard deviation.

Experiment: protein stability index of a GFP-peptide fusion (GPS, HEK-293T) (PSI 1-6); higher = more stable
[1] = treatment: DMSO, c terminus: a fixed tail appended
[2] = treatment: MLN4924 1 uM, 8 h, c terminus: a fixed tail appended
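Further: 24-mer peptide tiles fused after GFP, lentivirally expressed, FACS-sorted into six equal bins by GFP/DsRed ratio, decoded by Illumina sequencing, PSI is the read-weighted mean bin number.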

Sequence | protein stability index [1] | protein stability index [2] | protein stability index (treatment: DMSO, c terminus: native) | protein stability index (treatment: MLN4924 1 uM, 8 h, c terminus: native)
ELLDLSKQYDQQFPDGDDEFDSPH [STX11] | 4.89 ± 0.2 | 4.9 ± 0.17 |  | 
ELNNCISMLVAGNDRVQTIITQLE [TRIM63] | 2.25 ± 0.39 | 2.38 ± 0.11 |  | 
ELQQRNPKAERLRWSPAQEESFRQ [ZNF232] | 3.3 ± 0.37 | 3.49 ± 0.77 |  | 
ELRLYKQQVKKLEKALKKNVKLQE [CEP70] | 2.8 ± 0.59 | 3.08 ± 0.25 |  | 
EMCHKPDVELLQDLGDIVARSESV [TRIM43] | 4.66 ± 0.15 | 4.62 ± 0.24 |  | 
EMDKLRASDIMEPNLTYVYPHTRI [CLCN6] | 2.58 ± 0.23 | 2.92 ± 0.31 |  | 
ENAQIIYSLAEDTIQGVPLSSYIS [PCDHGA10] | 2.51 ± 0.41 | 2.82 ± 0.43 |  | 
ENEQRRLFIQKEEQLQQILKRKNK [MNAT1] | 4.38 ± 0.18 | 4.21 ± 0.2 |  | 
ENKESWDKILALVPETIHDELQQS [PRIM1] | 4.82 ± 0.3 | 4.72 ± 0.39 |  | 
ENPDLQEAYIAKQKRLKSKLLDHD [GDAP1] | 4.53 ± 0.11 | 4.67 ± 0.15 |  | 
EPASESVVGALPAEHQFSFMEKRN [TRAF3IP2] | 4.71 ± 0.26 | 4.98 ± 0.27 |  | 
EPGRLGSSSPASVTTEQLGAKMTE [PXN] | 5.2 ± 0.46 | 5.23 ± 0.24 |  | 
EPQPFVTSDVYSSDAAFGGILERY [MYORG] | 3.79 ± 0.095 | 3.87 ± 0.058 |  | 
EPTAAATARRSKRERREEDRAPAE [PWWP2B] | 5.7 ± 0.095 | 5.45 ± 0.14 |  | 
EPWLPLTDGRSPRRSRDPGYDHLW [PLEKHN1] | 3.68 ± 0.14 | 3.57 ± 0.26 |  | 
EPYGHLNPKWTKWLQKLCCPCCFG [PI4K2A] | 3.33 ± 0.33 | 3.37 ± 0.21 |  | 
EQGLSALHLAAQGRHAQTVETLLR [RIPK4] | 3.71 ± 0.55 | 4.12 ± 0.23 |  | 
EQHISKCKKAFREGSRKSSRVKGS [KMT2E] | 4.59 ± 0.26 | 4.63 ± 0.25 |  | 
EQLIEAINNGDFEAYTKICDPGLT [CAMK2D] | 4.06 ± 0.34 | 4.1 ± 0.23 |  | 
EQLREALHEALLEYEAGRAGPGGG [ESRRA] | 3.92 ± 0.27 | 4.05 ± 0.39 |  | 
EQQQILIRQLQEQHYQQYMQQLYQ [ACBD3] | 2.2 ± 0.38 | 2.24 ± 0.3 |  | 
EQRANDLEQIMESVKSKIGELEDE [CEP70] | 5.41 ± 0.098 | 5.39 ± 0.18 |  | 
EQVANKGEPLALPLDAGEYCVPRG [BEX1] | 4.86 ± 0.29 | 4.79 ± 0.27 |  | 

Sequence | protein stability index [1] | protein stability index [2] | protein stability index (treatment: DMSO, c terminus: native) | protein stability index (treatment: MLN4924 1 uM, 8 h, c terminus: native)
ERDLQELSIQVEEERRAREWLLDA [ZMAT5] | 4.54 ± 0.092 | 4.95 ± 0.32 |  | 
ERHCHLYTFHARFGEVRPYFYLGG [TRIM35] | 2.61 ± 0.49 | 2.6 ± 0.52 |  | 
ERLAKNLVEKGVLTTEKQNFLLFD [GOLPH3] | 3.16 ± 0.52 | 3.43 ± 0.34 |  | 
ERRGTPADTEEPTKDPDVAFHGLS [PSD2] | 5.38 ± 0.42 | 5.38 ± 0.17 |  | 
ERTYSANCSDFLESKGCFANTTPS [SPATS1] | 3.67 ± 0.14 | 3.56 ± 0.18 |  | 
ESEFDIEDEDKSEPEQTGADAAED [RBBP5] | 5.73 ± 0.18 | 5.826 ± 0.029 |  | 
ESIQRIAVHLCNALVCQVDNDHKE [ZER1] | 2.81 ± 0.63 | 2.64 ± 0.36 |  | 
ESLLAPLNVELDPEIQKVRAQERE [KRT71] | 5.54 ± 0.44 | 5.48 ± 0.2 |  | 
ESQASRKEEGLPEEEPSHVTGREG [ZNF8] | 5.62 ± 0.1 | 5.59 ± 0.2 |  | 
ESSVPSTVGCSSQHTPDQANSDRA [PLEKHN1] | 5.42 ± 0.2 | 5.61 ± 0.16 |  | 
ETLLGDPKRRMRYFDPLRNEYFFD [KCNA3] | 2.58 ± 0.37 | 2.79 ± 0.29 |  | 
ETPEWLDSDSCQKCDQPFFWNFKQ [WDFY2] | 2.94 ± 0.29 | 3.19 ± 0.11 |  | 
ETTEAIDDEGWLHSGDLGQLDGLG [ACSBG2] | 5.23 ± 0.25 | 5.15 ± 0.21 |  | 
EVLEWYTAKDFIVGKSLTILGRTF [EFHC1] | 3.13 ± 0.62 | 2.62 ± 0.61 |  | 
EWVLSTGQDKQFAWHCSESGQRLG [WDFY2] | 3.21 ± 0.23 | 3.05 ± 0.2 |  | 
EYDVYSTFQSHEPEFDYLKSLEIE [PPP2R2C] | 4.33 ± 0.17 | 4.3 ± 0.078 |  | 
FAASLLTVFAWLLQYARGLWLARA [C2CD2L] | 2.8 ± 0.49 | 2.54 ± 0.4 |  | 
FAGSMFGSVALGPVCPTVCPPGGI [KRT71] | 2.73 ± 0.61 | 2.36 ± 0.57 |  | 
FAKAGDTLSGTCLLIANKRQSYDI [CARM1] | 2.48 ± 0.38 | 2.36 ± 0.41 |  | 
FAPLLDEQYDLATKRVRQLLDLDP [GOLPH3] | 2.64 ± 0.48 | 2.94 ± 0.33 |  | 
FAYYKLNDVRQAARSAASYMLFDP [P3H4] | 2.12 ± 0.22 | 2.14 ± 0.16 |  | 
FCIPEHISPKARCLIRSLLRREPS [TRIB1] | 2.34 ± 0.47 | 2.03 ± 0.32 |  | 
FDPKTKRILTLQKANSWFNCRKN [MMP1] |  |  | 2.84 ± 0.41 | 2.78 ± 0.25

Sequence | protein stability index [1] | protein stability index [2] | protein stability index (treatment: DMSO, c terminus: native) | protein stability index (treatment: MLN4924 1 uM, 8 h, c terminus: native)
FGATTNYGKDIVKACSLLDVAVHM [ZBED1] | 2.17 ± 0.37 | 2.1 ± 0.34 |  | 
FGWETKIKAWMDRYEEANNNQYSE [KMT2E] | 3.1 ± 0.18 | 3.58 ± 0.13 |  | 
FIICIVIAILLYKSKPDRKRAESD [PTPRD] | 2.96 ± 0.72 | 2.97 ± 0.043 |  | 
FKKVLDLNPGFQDATLSLKQTILD [TTC32] | 2.7 ± 0.24 | 2.86 ± 0.2 |  | 
FKLKESCVRRRYSDFEWLKNELER [SNX12] | 2.33 ± 0.21 | 2.59 ± 0.26 |  | 
FKLTNKNSDRMTHCGVLEFVADEG [UFD1] | 3.32 ± 0.18 | 3.27 ± 0.31 |  | 
FLADEEFDVVVCDQVSACIPVFRL [ALG2] | 2.3 ± 0.43 | 2.34 ± 0.47 |  | 
FLLIVTLCVILYKKVHKGTVPKND [GLT8D2] | 2.59 ± 0.8 | 2.3 ± 0.59 |  | 
FLPGYVGGIQEGAVTPAGVVNKYQ [DHCR7] | 3.42 ± 0.21 | 3.45 ± 0.24 |  | 
FLPLNSAQTLHHKSCYNGRFQLLY [DNAAF3] | 2.54 ± 0.32 | 2.38 ± 0.36 |  | 
FLQKSSVGITVLNLCALSVDRYRA [EDNRA] | 2.69 ± 0.54 | 2.75 ± 0.54 |  | 
FLSGMEAAPRTLAAHPPLPLLPPA [TBX6] | 2.95 ± 0.41 | 3.15 ± 0.26 |  | 
FLVSAVAHEYIFCFVLGFFYPVML [SOAT2] | 3.25 ± 0.35 | 3.3 ± 0.44 |  | 
FMLLLIFFAFLHCWLNAFAEMLRF [SOAT2] | 3.07 ± 0.18 | 2.88 ± 0.57 |  | 
FMLLTQARLFDEPQLASLCLDTID [BTBD1] | 2.29 ± 0.52 | 2.34 ± 0.48 |  | 
FMVVDLLLGGDLRYHLQQNVHFKE [STK32A] | 2.8 ± 0.66 | 3.09 ± 0.78 |  | 
FNPEVAKYLKVPQDPLKFYKKIYF [IQUB] | 2.12 ± 0.36 | 2.24 ± 0.043 |  | 
FPYEYSYGLQGGMAFLDKRLQVKE [ATL3] | 2.53 ± 0.1 | 2.69 ± 0.12 |  | 
FQEAAGPREALSRLQELCHGWLRP [ZNF263] | 2.66 ± 0.4 | 2.67 ± 0.35 |  | 
FQFTDWPEQGVPKSGEGFIDFIGQ [PTPRD] | 2.68 ± 0.22 | 2.84 ± 0.31 |  | 
FQILLLSDPSTIEASNFQMDRKTR [PNLIPRP1] | 2.03 ± 0.43 | 2.42 ± 0.28 |  | 
FRADQRSGPRQLLTLYNPTGTALR [MOSPD3] | 3.2 ± 0.22 | 3.39 ± 0.35 |  | 
FRDATSAPLRKLSVDLIKTYKHIN [DYRK1B] | 3.36 ± 0.17 | 3.39 ± 0.27 |  | 

Sequence | protein stability index [1] | protein stability index [2] | protein stability index (treatment: DMSO, c terminus: native) | protein stability index (treatment: MLN4924 1 uM, 8 h, c terminus: native)
FRKVKQMHLNFMDEKDRIITAFYN [DNAJC4] | 2.26 ± 0.2 | 2.41 ± 0.28 |  | 
FRLETLAGLRSRRLKQPKAFCLRD [MIR22HG] | 2.52 ± 0.28 | 2.46 ± 0.29 |  | 
FRYLQGMLEAGEGGDWPGPGGPRN [PDLIM4] | 2.76 ± 0.12 | 3.64 ± 0.49 |  | 
FSDSSMDHFQKFLPTVGGQLGTAG [MYOZ1] | 2.78 ± 0.31 | 3.23 ± 0.34 |  | 
FSTWNLDHIIEKKRTIIPTLVEAI [DFFB] | 2.44 ± 0.45 | 2.55 ± 0.34 |  | 
FTNDKIINLPVEEFNELLSKYQLS [NFE2L1] | 2.85 ± 0.28 | 2.76 ± 0.16 |  | 
FTTNKCKGFGFVTMTNYDEAAMAI [ELAVL3] | 2.49 ± 0.65 | 2.51 ± 0.14 |  | 
GAAESPYSHLGGIDYKTTTILLDG [RAB40A] | 3.61 ± 0.4 | 3.57 ± 0.17 |  | 
GALMEVMQKRSKAIHSSDEDEDED [WASL] | 5.49 ± 0.19 | 5.41 ± 0.17 |  | 
GANVKPRNSTPPSLARNPAPGVLT [ZC2HC1A] | 4.24 ± 0.23 | 4.16 ± 0.5 |  | 
GASTFKEEPQTVPEARSRDATPPV [JUNB] | 5.34 ± 0.19 | 5.32 ± 0.15 |  | 
GAVYADSGNFERCIRLWKYALDMQ [FEM1A] | 2.38 ± 0.14 | 2.24 ± 0.38 |  | 
GDVPPSMSGSCAVCVDRVLYLFGG [KLHDC2] | 2.74 ± 0.79 | 2.47 ± 0.55 |  | 
GEEQSQYMHVGSCQHLSSSAEELR [KCNA3] | 4.83 ± 0.25 | 4.52 ± 0.2 |  | 
GEGEPGQGEGPEAGDAEVCPTPAR [NOP53] | 5.71 ± 0.2 | 5.67 ± 0.13 |  | 
GEKPYKCTHCSKSFRQRAGLIMHQ [ZNF449] | 3.59 ± 0.46 | 3.75 ± 0.27 |  | 
GFLQALSLAVDKQFEERKKLAAYI [TRIP13] | 3.35 ± 0.22 | 2.54 ± 0.39 |  | 
GGFGGGFAGGFVDFGACDGGLLTG [KRT13] | 2.71 ± 0.084 | 3.12 ± 0.25 |  | 
GGGDISVKELGTVMRMLGQTPTKE [TNNC2] | 4.04 ± 0.05 | 3.64 ± 0.83 |  | 
GGGGSRSISASSARFVSSGSGGGY [KRT15] | 4.23 ± 0.29 | 4.13 ± 0.3 |  | 
